{
  "source": "patent US20200331998A1",
  "target": "UCART19 CAR (anti-CD19 chimeric antigen receptor with a 4G7-derived scFv, on UCART19 cells)",
  "sequence (chain, as listed by the source mutant)": "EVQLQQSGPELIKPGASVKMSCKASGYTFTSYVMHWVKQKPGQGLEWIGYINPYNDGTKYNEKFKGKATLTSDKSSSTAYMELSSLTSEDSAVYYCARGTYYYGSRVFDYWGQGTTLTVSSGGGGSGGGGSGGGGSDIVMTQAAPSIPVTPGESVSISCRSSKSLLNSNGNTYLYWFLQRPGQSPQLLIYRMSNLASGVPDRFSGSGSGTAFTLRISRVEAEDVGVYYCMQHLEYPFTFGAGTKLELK",
  "test": "flow cytometry blocking assay: fresh UCART19 cells pre-incubated with unconjugated antibody, then stained with labelled soluble CD19-hFc; ligand: m14",
  "data": [
    {"substance": "Isotype Control (antibody)", "values": [
      {"measurement": "CAR+ (% cells stained by APC-sCD19) at 0.2 µg/mL antibody", "result": 52.4, "unit": "%"},
      {"measurement": "CAR+ (% cells stained by APC-sCD19) at 0.39 µg/mL antibody", "result": 52.9, "unit": "%"},
      {"measurement": "CAR+ (% cells stained by APC-sCD19) at 0.78 µg/mL antibody", "result": 53.4, "unit": "%"},
      {"measurement": "CAR+ (% cells stained by APC-sCD19) at 1.56 µg/mL antibody", "result": 52.7, "unit": "%"},
      {"measurement": "CAR+ (% cells stained by APC-sCD19) at 3.125 µg/mL antibody", "result": 52.9, "unit": "%"},
      {"measurement": "CAR+ (% cells stained by APC-sCD19) at 6.25 µg/mL antibody", "result": 52.6, "unit": "%"},
      {"measurement": "CAR+ (% cells stained by APC-sCD19) at 12.5 µg/mL antibody", "result": 52.3, "unit": "%"},
      {"measurement": "CAR+ (% cells stained by APC-sCD19) at 25 µg/mL antibody", "result": 52, "unit": "%"},
      {"measurement": "CAR+ (% cells stained by APC-sCD19) at 50 µg/mL antibody", "result": 53.3, "unit": "%"},
      {"measurement": "CAR+ (% cells stained by APC-sCD19) at 100 µg/mL antibody", "result": 54.8, "unit": "%"}
    ]}
  ]
}
